Data as given in article PMC5262380, “Structural insights into the mechanism of the DEAH-box RNA helicase Prp43”.

Columns and labels:
[1] = molecular target: ctPrp43-HT (Hook-Turn mutant) (Chaetomium thermophilum? (printed C. …, UniProt G0RY84 1-764, R180G;F181G)); experiment: fluorescence anisotropy; AMPPNP (100-fold excess), 3 mM MgCl2; Fluorescence anisotropy: 25 mM Tris pH 7.5, 150 mM KCl, 3 mM MgCl2, 25 C, 0.1 uM RNA, 0.01-50 uM protein, 100-fold excess AMPPNP; conditions: protein: recombinant; tags: GST-tag removed; label: 5' 6-carboxyfluorescein; single strand
ctPrp43 = ctPrp43 (Chaetomium thermophilum? (printed C. …, UniProt G0RY84 1-764)); experiment: as above; conditions: protein: recombinant; tags: GST-tag removed; label: 5' 6-carboxyfluorescein; single strand
Chain of ctPrp43 (Chaetomium thermophilum? (G0RY84 entry or part of it): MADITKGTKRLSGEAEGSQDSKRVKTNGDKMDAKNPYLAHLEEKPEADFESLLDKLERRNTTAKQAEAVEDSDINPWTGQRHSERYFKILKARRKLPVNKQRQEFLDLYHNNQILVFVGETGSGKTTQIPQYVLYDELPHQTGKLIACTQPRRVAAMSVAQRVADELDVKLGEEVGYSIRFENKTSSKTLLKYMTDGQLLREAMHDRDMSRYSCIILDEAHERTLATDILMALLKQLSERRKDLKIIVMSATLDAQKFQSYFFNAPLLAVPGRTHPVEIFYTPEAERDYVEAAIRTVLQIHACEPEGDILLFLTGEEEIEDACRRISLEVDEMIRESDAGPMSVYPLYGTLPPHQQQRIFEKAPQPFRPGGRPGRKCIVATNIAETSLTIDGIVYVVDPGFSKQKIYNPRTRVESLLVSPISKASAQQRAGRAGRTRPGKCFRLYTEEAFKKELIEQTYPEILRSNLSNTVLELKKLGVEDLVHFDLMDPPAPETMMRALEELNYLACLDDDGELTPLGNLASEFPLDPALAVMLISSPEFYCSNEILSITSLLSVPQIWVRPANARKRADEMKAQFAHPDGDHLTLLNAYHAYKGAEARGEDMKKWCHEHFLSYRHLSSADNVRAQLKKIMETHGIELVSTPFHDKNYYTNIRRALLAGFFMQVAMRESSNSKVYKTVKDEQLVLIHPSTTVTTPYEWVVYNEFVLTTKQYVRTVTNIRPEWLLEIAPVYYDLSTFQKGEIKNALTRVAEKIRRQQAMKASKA

Chain of ctPrp43-HT (Hook-Turn mutant) (Chaetomium thermophilum? (G0RY84 entry or part of it R180G;F181G | mutant): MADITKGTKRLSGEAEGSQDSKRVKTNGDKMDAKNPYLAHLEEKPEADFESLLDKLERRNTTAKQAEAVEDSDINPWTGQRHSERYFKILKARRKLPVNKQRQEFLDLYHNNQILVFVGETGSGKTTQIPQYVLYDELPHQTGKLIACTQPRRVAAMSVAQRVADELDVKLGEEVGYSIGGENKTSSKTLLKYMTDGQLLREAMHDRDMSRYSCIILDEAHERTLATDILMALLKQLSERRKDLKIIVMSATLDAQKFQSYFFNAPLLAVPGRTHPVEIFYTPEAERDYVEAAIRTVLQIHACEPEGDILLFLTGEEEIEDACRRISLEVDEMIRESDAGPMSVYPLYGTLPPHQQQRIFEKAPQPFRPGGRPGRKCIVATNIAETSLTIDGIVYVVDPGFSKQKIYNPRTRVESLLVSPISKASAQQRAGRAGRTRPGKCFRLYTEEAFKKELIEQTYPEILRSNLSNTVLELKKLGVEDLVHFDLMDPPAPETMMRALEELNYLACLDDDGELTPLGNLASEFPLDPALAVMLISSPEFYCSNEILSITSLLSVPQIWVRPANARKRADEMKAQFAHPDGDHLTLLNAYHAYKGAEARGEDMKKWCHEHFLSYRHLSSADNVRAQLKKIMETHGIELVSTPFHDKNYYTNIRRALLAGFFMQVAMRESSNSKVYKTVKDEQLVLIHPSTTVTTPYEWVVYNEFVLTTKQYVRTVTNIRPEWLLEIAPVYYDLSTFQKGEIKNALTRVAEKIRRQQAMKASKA

With UUUUUUUUUUUUUUUU (ssRNA) [5'-6FAM-U16-RNA] the Kd [1] was 0.84 ± 0.05 µM and the Kd (ctPrp43) was 4.98 ± 0.57 µM.
